According to publication PMC7907060, “Interaction of Plasmodium falciparum apicortin with α- and β-tubulin is critical for parasite growth and survival” (Scientific Reports, 2021):

What was measured:
[1] = target: T1, recombinant Plasmodium falciparum β-tubulin (Plasmodium falciparum, UniProt Q7KQL5 1-445); experiment: SPR; apicortin (12 µM) immobilised by amine coupling on a gold sensor chip; tubulins 100 nM-1 µM injected, 500 s; PBS; Autolab ESPRIT; settings: both partners purified
T1 construct: Plasmodium falciparum β-tubulin, cloned in pET28a+; also called Pfβ-tubulin

[2] = target: T2, recombinant Plasmodium falciparum α-tubulin-I (Plasmodium falciparum, UniProt Q6ZLZ9 1-453); experiment: as above; settings: both partners purified
T2 construct: Plasmodium falciparum α-tubulin-I, cloned in pET28a+; also called Pfα-tubulin-I

B1: recombinant Plasmodium falciparum apicortin (natural protein, UniProt C0H4E4 1-238, looked up)
chain: MENFDEVIKEYQKYLEGKEKTHKINSCKHPCCEEDNLKSVKNYFKVYHKKYIPSIIQKKKKERNEHAPPLLKDIQDKRCTNVFERLNDKQFYTGVQKTKFMELLKNNKNKSSYCYNNIKVFSTMLKKPCNYVVTPGTLGIQKYGIQTGRPKTIFLFNNEKKYDKGVYFLVKSYIKNIKSLCYEITKILQPSIGPTRKIYDQNFSLVRNVNDLINGGKYLCTSGDPPAPIRNLSLHFLT
notes: Plasmodium falciparum apicortin, cloned in pET28a+; the His tag is surmised from pET28a+ and Ni-NTA; also called PfApicortin
Q: With B1 as the binder, how does the Kd [1] read?
A: 750 nM

Q: And the Kd [2]?
A: 120 nM
